Test results reported in patent publication US20160215067A1 (CASE WESTERN RESERVE UNIVERSITY, published 2016).
Changes are numbered by the printed parent chain.

Key:
[1] = target: anti-CEP humanized antibody (anti-CEP huAb), full length; assay: competitive ELISA, CEP-BSA coated
[2] = target: anti-CEP humanized antibody (anti-CEP huAb), full length; assay: competitive ELISA, CEP-BSA coated, inhibitor preincubated with anti-CEP huAb
[3] = target: T1, CEP-modified human serum albumin (CEP-HSA) (human, UniProt P02768 25-609, 2-(omega-carboxyethyl)pyrrole (CEP) derivatives of primary amino groups; sites and number not stated); assay: BIAcore 3000, CEP-HSA immobilized on CM5 chip, single-cycle kinetics, bivalent fit
T1 construct: The antibodies recognise the CEP hapten on the carrier protein

[4] = target: T1, CEP-modified human serum albumin …; assay: BIAcore SPR, single-cycle kinetics; CEP-HSA immobilised as ligand, antibody as analyte [panel A, table under the sensorgram]
Procedure: (§1) The binding affinity of each antibody was measured using BIAcore technology.

[5] = target: T1, CEP-modified human serum albumin …; assay: BIAcore, CEP-HSA on chip
Procedure: as §1

[6] = target: T1, CEP-modified human serum albumin …; assay: BIAcore SPR, single-cycle kinetics; CEP-HSA immobilised as ligand, antibody as analyte [panel B, table under the sensorgram]
Procedure: as §1

[7] = target: T1, CEP-modified human serum albumin …; assay: BIAcore single-cycle kinetic analysis
[8] = target: T1, CEP-modified human serum albumin …; assay: BIAcore SPR, single-cycle kinetics; CEP-HSA immobilised as ligand, antibody as analyte [table under the sensorgram]

CHP-BSA (from UniProt P02769 25-607) was tested, and the fold lower cross-reactivity than with anti-CEP mumAb [1] was less than 10 fold and the IC50 [2] was 4690 µM.

“CEP-modified human serum albumin (CEP-HSA) (from UniProt P02768 25-609)” showed an IC50 [2] of 0.0056 µM.

Molecule CPP-HSA (from UniProt P02768 25-609) has an IC50 [2] of 10.5 µM.

B1: anti-CEP murine monoclonal antibody (anti-CEP mumAb), hybridoma clone 2D3.3G9-1 (antibody, mouse IgG2a, V domains shown)
VH: QIQLIQSGPELKKPGETVKISCKPSGYAFTKYGMDWVKQAPGEGLKWMGRINTYTGEPTYADDFKGRFAFSLEASASTAYLQINNLKNEDTATYFCARRRDGYPFAYWGQGTLVTVSS
VL: DIVMTQSHKFMSTSVRDRVSITCKASQDVSTAVAWYQQKPGQSPKILIYSASYRFPGVPDRFTGSGSGTDFTFTISSVQAEDLAVYYCHQHYFIPYTFGGGTKLEIK
notes: also called murine anti-CEP mAb; mouse counterpart
For B1, the Kd [3] was 0.00016 µM, the koff [4] was 0.00377 s⁻¹ and the kon [4] was 2.36e+07 M⁻¹ s⁻¹.

B2: anti-CEP humanized antibody (anti-CEP huAb), full length (antibody, human IgG1, V domains shown)
VH: QVQLVQSGAEVKKPGASVKVSCKASGYAFTKYGMDWVRQAPGQGLEWMGRINTYTGEPTYADDFKGRVTITADTSTSTAYMELSSLRSEDTAVYYCARRRDGYPFAYWGQGTLVTVSS
VL: DIVMTQSPDSLAVSLGERATINCKASQDVSTAVAWYQQKPGQPPKLLIYSASYRFPGVPDRFSGSGSGTDFTLTISSLQAEDVAVYYCHQHYFIPYTFGGGTKLEIK
notes: Human IgG1 heavy constant region (vector pFUSE-CHIg-hG1) and human kappa constant region (pFUSE2-CLIg-hk); expressed in CHO-S cells, clone A1; also called original anti-CEP huAb; anti-CEP humAb
For B2, the “fold weaker affinity than anti-CEP mumAb” value [5] was roughly 10 fold, the Kd [3] was 0.00158 µM and the koff [6] was 0.00025 s⁻¹. It also gave a kon [6] of 159000 M⁻¹ s⁻¹.

B3: Mutant 2F1, full length anti-CEP huAb mutant (antibody, V domains shown)
VH: B2 VH with F29L, D101G
VL: B2 VL
B3 was tested, and the Kd [7] was 0.00074 µM, the “fold stronger affinity than original anti-CEP huAb” value [7] was roughly 2 fold and the koff [8] was 0.000228 s⁻¹. For the same molecule, the kon [8] was 308000 M⁻¹ s⁻¹.
